# Measurements reported in patent US20170137473A1, “FLUOROGEN ACTIVATING AND SHIFTING TAG (FAST)” (PARIS SCIENCES ET LETTRE - QUARTIER LATIN, priority 2014, published 2017).
# Assays:
# HeLa cells [1] = experiment: LIVE/DEAD viability assay (calceinAM, EthD1) of HeLa cells; assay type: cell-based; conditions: incubated 5 h at 5, 10 and 20 μM; concentrations used for imaging
# Experimental: Cell viability was tested by using calceinAM and EthD1 (LIVE/DEAD® viability/cytotoxicity assay kit). CalceinAM is a cell-permeant profluorophore cleaved by intracellular esterases releasing the green fluorescent polyanionic calcein in live cells. EthD1 (Ethidium homodimer 1) is a non cell-permeant nucleic acid red fluorescent stain that enters only cells with damaged membranes and undergoes a fluorescence enhancement upon binding to nucleic acids, thereby producing a bright red fluorescence in dead cells. Control experiments with HeLa cells non-incubated with dye (top left, live control) or incubated for 1 h with 1% hydrogen peroxyde (top right, dead control) are shown. Cell fluorescence was evaluated by confocal microscopy.
# [2] = tested on: wild-type bacteria, yeast and mammalian cells; experiment: Fluorescence background of fluorogen in wild-type cells (flow cytometry, confocal); assay type: cell-based
# Experimental: (§1) Flow cytometry analysis was performed on an Accuri C6 (BD Biosciences). Confocal micrographs were acquired on a Zeiss LSM 710 Laser Scanning Microscope equipped with a Plan Apochromat 63×/1.4 NA oil immersion objective. ZEN software was used to collect the data. Images were analyzed with Image J. Spinning-disk confocal micrographs were acquired on a Nikon Eclipse Ti microscope equipped with a 4×/0.15 N.A objective and a coolSnap HQ2/CDDcamera (Princeton Instrument). Metamorph premier 7.6 software (Molecular Devices) was used to collect the data.
# (§2) Labeling of Y-FAST with HBR and HMBR in cells was then analyzed by flow cytometry in three different expression systems: yeast, E. coli and mammalian cells (HeLa cells). The fluorescence was compared to wild-type cells or cells expressing wild-type PYP. […] The performance and selectivity of Y-FAST labeling in mammalian cells, yeast and bacteria was furthermore confirmed by confocal microscopy (FIG. 14d and FIGS. 15 c to f and FIG. 16).
# wild-type PYP = target: T1, wild-type PYP (Halorhodospira halophila, UniProt P16113, C69G); experiment: Fluorogen labeling of cells expressing wild-type PYP; assay type: cell-based
# T1 construct: fusion partner differs by host: Aga2p (yeast surface display, pAG14); His-tag-ENLYFQG (E. coli, pET28a); expressed in transfected cells
# T1 sequence (P16113 whole entry C69G, the tested form may be a part): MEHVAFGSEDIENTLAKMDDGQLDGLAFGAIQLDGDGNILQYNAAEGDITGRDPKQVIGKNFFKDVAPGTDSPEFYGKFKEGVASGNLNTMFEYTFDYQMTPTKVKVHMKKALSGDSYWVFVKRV
# Experimental: as §1, §2
# [3] = Acid-base titration and absorption/emission of free fluorogen in aqueous solution; assay type: physicochemical
# Experimental: (§3) pH measurements were performed on a Standard pH meter PHM210 Radiometer Analytical (calibrated with aqueous buffers at pH 4 and 7 or 10) with a Crison 5208 Electrode (Barcelona, Spain). UV/Vis absorption spectra were recorded in 1 cm×1 cm quartz cuvettes (Hellma) on a diode array UV/Vis spectrophotometer (Evolution array, Thermo Scientific). Corrected fluorescence spectra upon one-photon excitation were recorded with a Photon Technology International QuantaMaster QM-1 spectrofluorimeter (PTI, Monmouth Junction, NJ) equipped with a Peltier cell holder (TLC50, Quantum Northwest, Shoreline, Wash.). The overall emission quantum yields after one-photon excitation φ were calculated from the relation: […]
# (§4) where the subscript ref stands for standard samples. A(λexc) is the absorbance at the excitation wavelength λexc, D is the integrated emission spectrum, and n is the refractive index for the solvent. The uncertainty for the experimental value of φ was estimated to be ±20%. The standard fluorophore for the quantum yields measurements was Fluorescein in sodium hydroxide 0.1 M with φref=0.92. The titration experiments used for the determination of the thermodynamic constants were performed on a SpectraMax®M5e (Molecular Devices) plate-reader. The on- and off-rate constants were determined by stopped-flow experiments using a RX2000 rapid kinetic stopped flow accessory (Applied Photophysics, Leatherhead, UK). The circular dichroism spectra were recorded on a J-815 circular dichroism spectropolarimeter (Jasco). The photobleaching experiments were performed on a the Photon Technology International QuantaMaster QM-1 spectrofluorimeter (PTI, Monmouth Junction, NJ) equipped with a Peltier cell holder (TLC50, Quantum Northwest, Shoreline, Wash.).
# The stability of the synthesized compounds was evaluated in aqueous solutions at neutral pH. Unstable and/or non-soluble compounds were not further studied. The photochemical and acido-basic properties of the remaining compounds were thus analyzed. Acid-base titrations were performed in aqueous solution by recording absorption and emission spectra as a function of pH.
# The protonated phenol state of HBR was indeed shown to strongly absorb violet light (maximal absorption wavelength 397 nm), while the phenolate state strongly absorbs blue light (maximal absorption wavelength 449 nm) (FIG. 2). This red-shift in absorption upon ionization can be explained by the stronger electronic donation of the negatively charged phenolate. The possible fluorescence increase of HBR was evaluated by restricting the motion thereof in monitoring the influence of medium viscosity on HBR fluorescence emission. With a pKA of 8.4±0.1, HBR is mainly protonated at physiological pH, which enabled to forecast it could undergo a specific red shift upon binding-induced deprotonation within a tailored protein cavity. In aqueous solution, both acidic and basic states of HBR are weakly fluorescent (FIG. 3), emitting respectively at 470 and 545 nm with 0.02% and 0.3% fluorescence quantum yields.
# [4] = known in the art; cited from earlier work
# [5] = Absorption and emission properties of HBR-binding PYP variants in presence of HBR; assay type: physicochemical; conditions: variant with HBR; for λabs / λem: PBS pH 7.4; for Fluorescence quantum yield: fraction
# Experimental: as §3, §4
# The photophysical properties of the engineered fluorescent proteins were more precisely characterized. […] This 70 nm red-shift in absorption was in accordance with HBR being bound within the PYP-variant cavity in its deprotonated state. This red-shift in absorption upon binding was also accompanied with a large fluorescence increase at 540 nm (FIG. 10 and Table 2 below).
# HeLa cells [6] = experiment: Brightness and photostability of fluorescent proteins expressed in mammalian (HeLa) cells; assay type: cell-based
# Experimental: FIG. 18 is a set of graphs and images showing Y-FAST brightness and photo-resistance in mammalian cells. […] (a) Confocal micrographs of representative cells (Ex/Em 488/493-797 nm; scale bars 10 μm). Side-by-side images were recorded using the same settings for direct comparison of the fluorescence intensities. (b) Quantification of the fluorescence brightness of the different proteins (n=15-30 cells).
# UnaG upon long-term observation with high power 488 nm laser excitation (light power 90 kW·cm-2, pixel dwell 1.58 μs). Plots show the fluorescence intensity as a function of the number of confocal microscope scans.
# HEK293 and HeLa cells were cultured in DMEM supplemented with phenol red, Glutamax I, 10% fetal calf serum and 1% penicillin-streptomycin at 37° C. within a 5% CO2 atmosphere. For microscopy imaging, cells were seeded in μDish IBIDI (Biovalley) coated with poly-L-lysine. Cells were transiently transfected using Genejuice (Merck) according to the manufacturer's protocol.
# as §1
# [7] = Circular dichroism stability of Y-FAST versus temperature; assay type: physicochemical; conditions: 25-45° C. range
# Excerpt: Note that we verified by circular dichroism, that Y-FAST was stable in the considered temperature range in order to ascertain that our two-state model was valid for the subsequent analyses.
# as §4
# [8] = glycerol content increased from 0 to 40% (v/v)
Molecule,Relative brightness (% of EGFP) [5],brightness [5],Fluorescence quantum yield [5],Extinction coefficient [5],λabs [5] [nm],λem [5] [nm],also measured
"O=C1NC(=S)S/C1=C\c1ccc(O)cc1 [HBR, (Z)-5-(4-hydroxybenzylidene)-2-thioxo-1,3-thiazolidin-4-one]",,,,,,,"toxicity for HeLa cells (HeLa cells [1]): non-toxic; fluorescence background in wild-type cells [2]: no or negligible fluorescence background; binding to wild-type PYP (wild-type PYP): do not bind; pKa ([3]; aqueous solution): 8.4 ± 0.1; emission wavelength, acidic state ([3]; free in aqueous solution): 470 nm; emission wavelength, basic state ([3]; free in aqueous solution): 545 nm; fluorescence quantum yield, acidic state ([3]; free in aqueous solution): 0.02%; fluorescence quantum yield, basic state ([3]; free in aqueous solution): 0.3%; maximal absorption wavelength, phenolate state ([3]; free in aqueous solution): 449 nm; maximal absorption wavelength, protonated phenol state ([3]; free in aqueous solution): 397 nm; maximal absorption wavelength ([3]; free, PBS pH 7.4): 397 nm; increase of the fluorescence quantum yield, acidic state [3, 8]: Six; increase of the fluorescence quantum yield, basic state [3, 8]: three-fold"
parahydroxybenzylidene-5-imidazolinone [p-HBI],,,,,,,"absorption wavelength, deprotonated form [4]: 475 nm; absorption wavelength, protonated form [4]: 397 nm"
"Clone 6: fluorescent HBR-binding PYP variant, SEQ ID NO: 6, residues 94-101 WLIPTRNA (protein, Functional derivative of SEQ ID NO: 48 - Clone 6) MEHVAFGSEDIENTLAKMDDGQLDGLAFGAIQLDGDGNILQYNAAEGDITGRDPKQVIGKNFFKDVAPGTDSPEFYGKFKEGVASGNLNTMFEWLIPTRNAPTKVKVHMKKALSGDSYWVFVKRV",9.0 % of EGFP,"3,000",0.07,"43,000 M^−1cm^−1",467,539,
"Clone 5: fluorescent HBR-binding PYP variant, SEQ ID NO: 5, residues 94-101 WRIPTECA (protein, Functional derivative of SEQ ID NO: 48 - Clone 5) MEHVAFGSEDIENTLAKMDDGQLDGLAFGAIQLDGDGNILQYNAAEGDITGRDPKQVIGKNFFKDVAPGTDSPEFYGKFKEGVASGNLNTMFEWRIPTECAPTKVKVHMKKALSGDSYWVFVKRV",8.3 % of EGFP,"2,800",0.06,"47,000 M^−1cm^−1",468,542,
"Clone 4: fluorescent HBR-binding PYP variant, SEQ ID NO: 4, residues 94-101 WDIPTNPE (protein, Functional derivative of SEQ ID NO: 48 - Clone 4) MEHVAFGSEDIENTLAKMDDGQLDGLAFGAIQLDGDGNILQYNAAEGDITGRDPKQVIGKNFFKDVAPGTDSPEFYGKFKEGVASGNLNTMFEWDIPTNPEPTKVKVHMKKALSGDSYWVFVKRV",7.4 % of EGFP,"2,500",0.06,"41,000 M^−1cm^−1",468,541,

# More lines, main results first:
Relative brightness (% of EGFP) [5],brightness [5],Fluorescence quantum yield [5],Molecule,Extinction coefficient [5],λabs [5] [nm],λem [5] [nm],also measured
12 % of EGFP,"4,000",0.09,"Clone 3: best fluorescent HBR-binding PYP variant, SEQ ID NO: 3, residues 94-101 WMIPTSRG (protein, Functional derivative of SEQ ID NO: 48 - Clone 3) MEHVAFGSEDIENTLAKMDDGQLDGLAFGAIQLDGDGNILQYNAAEGDITGRDPKQVIGKNFFKDVAPGTDSPEFYGKFKEGVASGNLNTMFEWMIPTSRGPTKVKVHMKKALSGDSYWVFVKRV","44,000 M^−1cm^−1",467,542,"photostability in cells (HeLa cells [6]; 488 nm excitation): more stable than UnaG and Venus, but less than EGFP; fluorescence in mammalian cells (HeLa cells [6]; blue excitation at 488 nm, Y-FAST labeled with 5 μM HMBR): comparable with that of the green fluorescent proteins EGFP and UnaG, and two fold lower than that of the yellow fluorescent Venus; photostability in cells (HeLa cells [6]; excitation at 514 nm): almost did not photobleach; fluorescence in mammalian cells (HeLa cells [6]; green excitation at 514 nm): five-fold less than Venus; stability by circular dichroism [7]: stable"
8.3 % of EGFP,"2,800",0.06,"Clone 2: fluorescent HBR-binding PYP variant, SEQ ID NO: 2, residues 94-101 WLIPTLPQ (protein, Functional derivative of SEQ ID NO: 48 - Clone 2) MEHVAFGSEDIENTLAKMDDGQLDGLAFGAIQLDGDGNILQYNAAEGDITGRDPKQVIGKNFFKDVAPGTDSPEFYGKFKEGVASGNLNTMFEWLIPTLPQPTKVKVHMKKALSGDSYWVFVKRV","46,000 M^−1cm^−1",466,540,
